Reference: paper PMC13042514, “Comprehensive Profiling of N 6‐methyladnosine (m6A) Readouts Reveals Novel m6A Readers That Regulate Human Embryonic Stem Cell Differentiation”

Key:
Test in all cases: EMSA; EMSA: Beyotime GS606 kit binding buffer (composition not given), 1 ug protein and 1 uL of 2.5 nM biotin probe in 10 uL, on ice 10 min; pull-down: Pierce 20164 kit, 50 pmol RNA, 200 ug total protein, 4 C 30-60 min
Settings in all cases: protein: recombinant; tags: GST; label: biotin; single strand
GST-L1TD1 = target: T1, GST-L1TD1 (UniProt Q5T7N2 1-865)
T1 sequence: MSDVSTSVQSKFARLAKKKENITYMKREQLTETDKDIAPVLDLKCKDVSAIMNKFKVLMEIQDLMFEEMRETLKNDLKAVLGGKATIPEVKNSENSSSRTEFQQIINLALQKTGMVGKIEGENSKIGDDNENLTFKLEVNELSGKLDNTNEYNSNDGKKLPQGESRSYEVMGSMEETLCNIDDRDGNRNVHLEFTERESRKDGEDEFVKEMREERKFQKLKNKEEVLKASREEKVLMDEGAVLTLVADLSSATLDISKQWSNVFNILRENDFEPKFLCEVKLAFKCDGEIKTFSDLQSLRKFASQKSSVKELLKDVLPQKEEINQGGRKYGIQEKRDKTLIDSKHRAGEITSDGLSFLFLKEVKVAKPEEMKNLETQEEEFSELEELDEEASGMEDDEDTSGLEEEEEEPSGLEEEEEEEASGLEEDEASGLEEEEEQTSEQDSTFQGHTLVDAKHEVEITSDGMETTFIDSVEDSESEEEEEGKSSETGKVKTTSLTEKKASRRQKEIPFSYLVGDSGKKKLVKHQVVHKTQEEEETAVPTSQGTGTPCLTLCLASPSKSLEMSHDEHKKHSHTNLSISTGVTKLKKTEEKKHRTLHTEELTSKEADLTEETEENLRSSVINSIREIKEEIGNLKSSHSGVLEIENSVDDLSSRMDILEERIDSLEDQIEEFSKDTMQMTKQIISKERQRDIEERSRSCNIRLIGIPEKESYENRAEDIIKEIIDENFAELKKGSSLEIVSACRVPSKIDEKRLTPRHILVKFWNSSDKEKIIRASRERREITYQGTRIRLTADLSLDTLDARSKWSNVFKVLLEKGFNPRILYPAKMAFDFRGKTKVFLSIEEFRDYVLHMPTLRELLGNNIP

GST-DDX6 = GST-DDX6 (UniProt P26196 1-483)
GST-FUBP3 = GST-FUBP3 (UniProt Q96I24 1-572)
GST-FXR2 = GST-FXR2 (UniProt P51116 1-673)

Measured: binding result

Chain of GST-FXR2 (P51116 whole entry): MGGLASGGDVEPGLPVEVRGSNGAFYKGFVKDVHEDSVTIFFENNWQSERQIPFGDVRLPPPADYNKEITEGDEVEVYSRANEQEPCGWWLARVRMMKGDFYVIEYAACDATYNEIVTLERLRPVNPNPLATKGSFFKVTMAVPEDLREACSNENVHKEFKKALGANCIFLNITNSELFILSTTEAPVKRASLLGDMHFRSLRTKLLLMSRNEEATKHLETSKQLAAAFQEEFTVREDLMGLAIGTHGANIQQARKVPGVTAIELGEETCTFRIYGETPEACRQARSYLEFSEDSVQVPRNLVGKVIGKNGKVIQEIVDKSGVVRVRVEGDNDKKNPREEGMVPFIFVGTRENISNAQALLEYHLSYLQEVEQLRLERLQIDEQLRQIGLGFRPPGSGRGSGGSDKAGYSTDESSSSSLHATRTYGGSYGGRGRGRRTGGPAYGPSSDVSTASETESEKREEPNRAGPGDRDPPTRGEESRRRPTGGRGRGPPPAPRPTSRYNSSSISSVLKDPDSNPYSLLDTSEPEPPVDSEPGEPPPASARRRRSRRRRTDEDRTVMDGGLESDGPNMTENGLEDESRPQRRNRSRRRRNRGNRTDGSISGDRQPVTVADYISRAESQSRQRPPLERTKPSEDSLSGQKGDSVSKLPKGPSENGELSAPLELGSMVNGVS
Chain of GST-FUBP3 (Q96I24 whole entry): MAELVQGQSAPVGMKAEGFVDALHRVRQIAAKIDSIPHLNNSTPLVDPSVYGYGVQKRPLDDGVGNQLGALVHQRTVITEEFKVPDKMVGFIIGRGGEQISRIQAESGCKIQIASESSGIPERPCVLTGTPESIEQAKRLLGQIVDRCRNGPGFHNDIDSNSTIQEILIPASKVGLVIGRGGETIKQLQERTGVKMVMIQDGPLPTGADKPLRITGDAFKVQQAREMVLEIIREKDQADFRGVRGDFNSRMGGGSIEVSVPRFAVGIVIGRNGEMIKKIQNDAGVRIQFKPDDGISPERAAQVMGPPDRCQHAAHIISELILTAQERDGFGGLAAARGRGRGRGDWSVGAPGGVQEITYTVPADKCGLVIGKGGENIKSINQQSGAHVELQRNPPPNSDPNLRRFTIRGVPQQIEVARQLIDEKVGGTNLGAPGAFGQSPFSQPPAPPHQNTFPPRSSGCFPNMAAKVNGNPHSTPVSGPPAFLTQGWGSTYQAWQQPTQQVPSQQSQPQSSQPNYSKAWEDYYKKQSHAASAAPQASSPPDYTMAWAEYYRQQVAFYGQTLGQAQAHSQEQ
Chain of GST-DDX6 (P26196 whole entry): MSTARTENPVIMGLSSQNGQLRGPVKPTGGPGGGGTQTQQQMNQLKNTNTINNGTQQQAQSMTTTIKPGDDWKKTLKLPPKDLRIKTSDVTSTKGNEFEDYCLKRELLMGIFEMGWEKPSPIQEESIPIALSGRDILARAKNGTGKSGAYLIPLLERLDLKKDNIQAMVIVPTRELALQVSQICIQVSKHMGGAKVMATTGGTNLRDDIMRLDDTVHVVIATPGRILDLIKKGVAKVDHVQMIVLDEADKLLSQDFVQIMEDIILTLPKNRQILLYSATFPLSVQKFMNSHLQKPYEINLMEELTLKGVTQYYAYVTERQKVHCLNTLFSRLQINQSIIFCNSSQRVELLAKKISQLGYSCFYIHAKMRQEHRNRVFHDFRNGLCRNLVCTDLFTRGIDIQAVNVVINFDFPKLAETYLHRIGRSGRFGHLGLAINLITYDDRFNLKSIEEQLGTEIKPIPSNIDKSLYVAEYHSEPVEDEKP

B1: ss-m6A (EMSA) (ssRNA)
RNA: CGUCUCGGACUCGGACUGCU
modifications: m6A at positions 9 and 15
binds: GST-L1TD1 | GST-DDX6 | GST-FUBP3 | GST-FXR2
